Source: patent US8383117
Values belong to the binder of their own block, whether it stands above or below them. Where no end group is shown, it is not given here. The star is where a group is joined. Biotin = O=C1N[C@H]2[C@H](CS[C@H]2CCCCC(=O)*)N1

Legend:
[1] = target: Peptide 2 (Biotin-…) (human); experiment: ELISA on peptide-coated plates, 75 µg/mL VB1-008; reference Peptide 3
[2] = target: VB1-008 monoclonal antibody; experiment: peptide in molar excess (20× to 200×) against 0.5 µM VB1-008, flow cytometry on MDA-MB-435S cells

percent of the binding observed with Peptide 3 [1]: 50 to 60%
B1: VB1-008 monoclonal antibody (antibody, V domains shown)
VH: QVQLQELGPRLVRPSQTLILTCTVSGGSVSGDEYYWSWLRQTPGKGLEWIGYMSYRGSSYYSPSLQSRVTIAVDRSKNEFSLKLTSVTAADAAVYFCARKYCGGDCRSGFDIWGRGTMVTVAS
VL: YELTQPPSVSVSPGQKAFITCSGDNLGNKYVCWYQQKPGQSPVLVIYEDTKRPSGIPERFSASNSGNTATLTISGTQPIDEADYYCQAWDSRTEIFGTGTKVTVLS

competition efficiency [2]: 60%
Binder: Biotin-RIPATNMDSSH [Peptide 2 (Biotin-…)]

competition efficiency [2]: 96%
Binder: Biotin-ATNMDSSHSIT [Peptide 3 (Biotin-…)]
